Measured values as given in patent publication US7741051B2, “Soluble ectodomain fragments of MET and uses thereof” (Medical Research Council, priority 2003, dated 2010).

Assays:
[1] = Binding of dimeric MET constructs to HiTrap Heparin HP column, NaCl gradient elution; conditions: 50 mM phosphate, 150 mM NaCl, pH 7.4, linear NaCl gradient
Experimental: (§1) Immulon B 96 well plates were coated with recombinant, single chain (R494E) or two chain HGF/SF in 50 mM phosphate buffer, pH 6.0. Wells were blocked, incubated with dimeric MET constructs at the concentrations shown in FIGS. 2a and b and bound MET was detected with HRP-conjugated rabbit anti-human IgG (Dako P0214). For heparin binding, dimeric MET constructs were loaded on a HiTrap Heparin HP column (Amersham Biosciences 17-0406-01) in 50 mM phosphate, 150 mM NaCl, pH 7.4 and eluted with a linear gradient of NaCl as shown in FIGS. 2c and d.

[2] = target: T1, recombinant two chain HGF/SF (human, UniProt P14210 32-494; P14210 495-728); assay: solid phase assay, HGF/SF coated, bound MET detected with HRP anti-human IgG
T1 construct: also called mature (two-chain) HGF/SF
Experimental: as §1

[3] = target: T2, recombinant single chain HGF/SF (R494E) (human, UniProt P14210 32-728); assay: as above
T2 construct: also called single chain (R494E) HGF/SF
Experimental: as §1

[4] = test system: single chain (R494E) or two chain HGF/SF; assay: Solid phase binding of dimeric MET deletions to HGF/SF; conditions: plates coated with single chain (R494E) or two chain HGF/SF; bound MET detected with HRP anti-human IgG
Experimental: as §1

Sequence of single chain (R494E) or two chain HGF/SF (P14210 32-493 limits assumed, stated change not applied): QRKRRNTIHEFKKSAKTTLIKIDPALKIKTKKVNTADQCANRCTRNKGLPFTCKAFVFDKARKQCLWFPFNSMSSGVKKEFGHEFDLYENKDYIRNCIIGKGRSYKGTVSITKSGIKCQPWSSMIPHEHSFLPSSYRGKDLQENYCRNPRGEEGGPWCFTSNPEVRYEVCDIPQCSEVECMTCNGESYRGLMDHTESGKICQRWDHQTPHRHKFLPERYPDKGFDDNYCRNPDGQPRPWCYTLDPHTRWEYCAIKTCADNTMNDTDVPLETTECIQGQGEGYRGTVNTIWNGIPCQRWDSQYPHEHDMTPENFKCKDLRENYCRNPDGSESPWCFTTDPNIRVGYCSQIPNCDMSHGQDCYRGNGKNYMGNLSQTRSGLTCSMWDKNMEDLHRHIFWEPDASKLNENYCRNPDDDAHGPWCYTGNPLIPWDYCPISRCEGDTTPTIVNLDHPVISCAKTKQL
T2 sequence (P14210 32-728 R494E limits assumed): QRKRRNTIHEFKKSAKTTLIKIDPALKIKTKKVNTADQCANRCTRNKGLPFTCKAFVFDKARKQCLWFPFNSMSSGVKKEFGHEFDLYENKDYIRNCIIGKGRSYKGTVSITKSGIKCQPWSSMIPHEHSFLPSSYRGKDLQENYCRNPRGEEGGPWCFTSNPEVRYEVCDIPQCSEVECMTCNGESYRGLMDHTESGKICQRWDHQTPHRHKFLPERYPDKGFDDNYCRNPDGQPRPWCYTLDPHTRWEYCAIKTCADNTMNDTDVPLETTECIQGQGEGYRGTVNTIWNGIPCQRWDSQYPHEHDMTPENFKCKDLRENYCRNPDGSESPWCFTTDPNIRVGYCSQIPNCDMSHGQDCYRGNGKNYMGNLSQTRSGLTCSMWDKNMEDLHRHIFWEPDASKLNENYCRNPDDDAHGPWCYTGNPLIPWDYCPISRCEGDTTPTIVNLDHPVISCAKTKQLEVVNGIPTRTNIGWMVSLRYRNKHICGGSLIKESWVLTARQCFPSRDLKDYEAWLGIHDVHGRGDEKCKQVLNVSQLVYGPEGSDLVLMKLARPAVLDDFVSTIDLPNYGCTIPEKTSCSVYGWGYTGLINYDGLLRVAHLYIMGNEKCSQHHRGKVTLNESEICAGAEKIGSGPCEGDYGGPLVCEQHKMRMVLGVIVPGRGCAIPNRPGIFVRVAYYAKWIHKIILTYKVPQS
T1 sequence (P14210 32-494 limits assumed, chain 1 of 2): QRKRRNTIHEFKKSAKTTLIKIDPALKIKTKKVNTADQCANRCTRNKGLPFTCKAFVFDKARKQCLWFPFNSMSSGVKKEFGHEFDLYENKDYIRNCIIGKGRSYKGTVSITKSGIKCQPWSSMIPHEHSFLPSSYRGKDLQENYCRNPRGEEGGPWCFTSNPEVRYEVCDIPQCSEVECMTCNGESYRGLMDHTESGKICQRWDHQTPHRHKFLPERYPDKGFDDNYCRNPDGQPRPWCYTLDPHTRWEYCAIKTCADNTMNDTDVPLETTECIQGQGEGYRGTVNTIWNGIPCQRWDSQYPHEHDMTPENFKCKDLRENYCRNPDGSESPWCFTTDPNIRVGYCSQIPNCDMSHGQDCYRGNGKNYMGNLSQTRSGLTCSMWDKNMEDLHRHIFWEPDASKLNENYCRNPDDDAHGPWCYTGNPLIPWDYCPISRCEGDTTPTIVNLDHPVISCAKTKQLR
T1 sequence (P14210 495-728 limits assumed, chain 2 of 2): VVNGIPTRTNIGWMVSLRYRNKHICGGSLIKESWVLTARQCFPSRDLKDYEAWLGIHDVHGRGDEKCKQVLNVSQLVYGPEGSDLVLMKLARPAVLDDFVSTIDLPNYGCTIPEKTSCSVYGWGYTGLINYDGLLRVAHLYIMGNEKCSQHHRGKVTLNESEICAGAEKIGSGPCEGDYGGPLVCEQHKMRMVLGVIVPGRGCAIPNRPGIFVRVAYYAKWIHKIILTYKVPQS

Molecule	Binding to immobilised heparin [1]	Binding to HGF/SF [4]	further results
HGF/SF: hepatocyte growth factor/scatter factor, ligand of MET	strong heparin binding	–	–
MET 567-932GH (Fc fusion, IG leader left out; Dimer through the Fc; also called MET567-928GH; not shown: hinge, CH2 and CH3 domains of the human gamma1 antibody constant region) chain (part 1 of 2): KVFPNSAPLEGGTRLTICGWDFGFRRNNKFDLKKTRVLLGNESCTLTLSESTMNTLKCTVGPAMNKHFNMSIIISNGHGTTQYSTFSYVDPVITSISPKYGPMAGGTLLTLTGNYLNSGNSRHISIGGKTCTLKSVSNSILECYTPAQTISTEFAVKLKIDLANRETSIFSYREDPIVYEIHPTKSFISGGSTITGVGKNLNSVSVPRMVINVHEAGRNFTVACQHRSNSEIICCTTPSLQQLNLQLPLKTKAFFMLDGILSKYFDLIYVHNPVFKPFEKPVMISMGNENVLEIKGNDIDPEAVKGEVLKVGNKSCENIHLHSEAVLCTVPNDLLKLNSELNIEWKQAISSTVLGKVIVQPDQNFT chain (part 2 of 2): HHHHHH	–	–	binding result [2]: no binding; binding result [3]: no binding
25-519GH: dimeric MET aa 25-519 fused to human γ1 Fc, hexa-histidine tagged (protein, left off: a dimerising Fc or GST) ECKEALAKSEMNVNMKYQLPNFTAETPIQNVILHEHHIFLGATNYIYVLNEEDLQKVAEYKTGPVLEHPDCFPCQDCSSKANLSGGVWKDNINMALVVDTYYDDQLISCGSVNRGTCQRHVFPHNHTADIQSEVHCIFSPQIEEPSQCPDCVVSALGAKVLSSVKDRFINFFVGNTINSSYFPDHPLHSISVRRLKETKDGFMFLTDQSYIDVLPEFRDSYPIKYVHAFESNNFIYFLTVQRETLDAQTFHTRIIRFCSINSGLHSYMEMPLECILTEKRKKR chain (part 1 of 2): STKKEVFNILQAAYVSKPGAQLARQIGASLNDDILFGVFAQSKPDSAEPMDRSAMCAFPIKYVNDFFNKIVNKNNVRCLQHFYGPNHEHCFNRTLLRNSSGCEARRDEYRTEFTTALQRVDLFMGQFSEVLLTSISTFIKGDLTIANLGTSEGRFMQVVVSRSGPSTPHVNFLLDSHPVSPEVIVEHTLNQNGYTLVITGKKITKIPLNGLG chain (part 2 of 2): HHHHHH	indistinguishable from full length MET	readily measurable	Binding to immobilised heparin ([1]; listed as MET 25-519GH): showed binding
MET567-928GH: dimeric C-terminal part of the MET ectodomain fused to human γ1 Fc, hexa-histidine tagged (protein, left off: a dimerising Fc or GST) chain (part 1 of 2): KVFPNSAPLEGGTRLTICGWDFGFRRNNKFDLKKTRVLLGNESCTLTLSESTMNTLKCTVGPAMNKHFNMSIIISNGHGTTQYSTFSYVDPVITSISPKYGPMAGGTLLTLTGNYLNSGNSRHISIGGKTCTLKSVSNSILECYTPAQTISTEFAVKLKIDLANRETSIFSYREDPIVYEIHPTKSFISGGSTITGVGKNLNSVSVPRMVINVHEAGRNFTVACQHRSNSEIICCTTPSLQQLNLQLPLKTKAFFMLDGILSKYFDLIYVHNPVFKPFEKPVMISMGNENVLEIKGNDIDPEAVKGEVLKVGNKSCENIHLHSEAVLCTVPNDLLKLNSELNIEWKQAISSTVLGKVIVQPDQNFT chain (part 2 of 2): HHHHHH	no binding	no binding	Binding to immobilised heparin ([1]; listed as MET 567-928GH): none
25-567GH: dimeric MET aa 25-567 fused to human γ1 Fc, hexa-histidine tagged (protein, left off: a dimerising Fc or GST) ECKEALAKSEMNVNMKYQLPNFTAETPIQNVILHEHHIFLGATNYIYVLNEEDLQKVAEYKTGPVLEHPDCFPCQDCSSKANLSGGVWKDNINMALVVDTYYDDQLISCGSVNRGTCQRHVFPHNHTADIQSEVHCIFSPQIEEPSQCPDCVVSALGAKVLSSVKDRFINFFVGNTINSSYFPDHPLHSISVRRLKETKDGFMFLTDQSYIDVLPEFRDSYPIKYVHAFESNNFIYFLTVQRETLDAQTFHTRIIRFCSINSGLHSYMEMPLECILTEKRKKR chain (part 1 of 2): STKKEVFNILQAAYVSKPGAQLARQIGASLNDDILFGVFAQSKPDSAEPMDRSAMCAFPIKYVNDFFNKIVNKNNVRCLQHFYGPNHEHCFNRTLLRNSSGCEARRDEYRTEFTTALQRVDLFMGQFSEVLLTSISTFIKGDLTIANLGTSEGRFMQVVVSRSGPSTPHVNFLLDSHPVSPEVIVEHTLNQNGYTLVITGKKITKIPLNGLGCRHFQSCSQCLSAPPFVQCGWCHDKCVRSEECLSGTWTQQICLPAIYK chain (part 2 of 2): HHHHHH	–	readily measurable	–
